The text below walks through data of PMC6456722, “Internal cleavage and synergy with twisted gastrulation enhance BMP inhibition by BMPER” (Matrix Biology, 2019).

B1: full-length BMP-binding endothelial cell precursor-derived regulator (FL-BMPER) (natural protein)
chain: not shown
modifications: N-glycosylated (five predicted N-glycosylation sites)
notes: BMPER, human, full length, based on NCBI NM_133468.4; five vWFC domains, one vWFD domain, one TIL domain; His tag is thrombin cleavable; The protein is internally cleaved at the G368DPH371 site; the two fragments stay joined by the disulphide C364-C497; also called full length BMPER; Crossveinless-2 (CV2) in other species
B2: twisted gastrulation (Tsg) (natural protein, human, UniProt Q9GZX9 26-223, looked up)
chain: CNKALCASDVSKCLIQELCQCRPGEGNCSCCKECMLCLGALWDECCDCVGMCNPRNYSDTPPTSKSTVEELHEPIPSLFRALTEGDTQLNWNIVSFPVAEELSHHENLVSFLETVNQPHHQNVSVPSNNVHAPYSSDKEHMCTVVYFDDCMSIHQCKISCESMGASKYRWFHNACCECIGPECIDYGSKTVKCMNCMF
notes: twisted gastrulation (Tsg)
B3: chordin vWFC2-3 (domain or fragment, UniProt Q9H2X0 703-850, looked up)
chain: NTCFFEGQQRPHGARWAPNYDPLCSLCTCQRRTVICDPVVCPPPSCPHPVQAPDQCCPVCPEKQDVRDLPGLPRSRDPGEGCYFDGDRSWRAAGTRWHPVVPPFGLIKCAVCTCKGGTGEVHCEKVQCPRLACAQPVRVNPTDCCKQC
notes: chordin, domains vWFC2-3

Series [1] concerns the molecule itself. The experiment in a line: AUC; sedimentation velocity, 230 nm, 45000 rpm, 20 °C.
Series [2] addresses B1. In words: SPR; ProteOn XPR36; Tsg immobilised on a GLC chip by amine coupling; FL-BMPER (0-150 nM) or N-BMPER (0-50 nM) as analytes; 10 mM phosphate pH 7.4, 137 mM NaCl, 2.7 mM KCl, 0.005% Tween-20, 25 °C; KD of FL-BMPER by equilibrium analysis, of N-BMPER by Langmuir 1:1 model. As to conditions: both partners purified. On the technique in general: Surface plasmon resonance follows binding to a sensor surface in real time, without labels.

For series [3], the target named is T1, N-BMPER (N-terminal five vWFC domains of human BMPER) (human, UniProt Q8N8U9 40-358, N-glycosylated (four predicted sites in the vWFC domains)).
T1 construct: BMPER, human, the N-terminal five vWFC domains (vWFC1-5), based on NCBI NM_133468.4; His tag is thrombin cleavable; also called C-terminally truncated N-BMPER
T1 sequence (Q8N8U9 40-358): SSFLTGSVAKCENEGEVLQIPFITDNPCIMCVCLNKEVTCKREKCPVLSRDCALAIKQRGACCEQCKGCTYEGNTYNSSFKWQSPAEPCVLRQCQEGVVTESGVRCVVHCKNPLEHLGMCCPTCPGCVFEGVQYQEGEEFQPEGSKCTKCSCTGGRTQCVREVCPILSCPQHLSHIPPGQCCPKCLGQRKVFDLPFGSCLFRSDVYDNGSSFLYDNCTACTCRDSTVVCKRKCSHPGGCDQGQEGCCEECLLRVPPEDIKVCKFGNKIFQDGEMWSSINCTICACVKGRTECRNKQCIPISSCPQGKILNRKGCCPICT
The description is as above. To be noted: both partners purified.

The target in series [4] is T1, N-BMPER (N-terminal five vWFC domains …). The experiment in a line: SPR; chordin vWFC2-3 immobilised, N-BMPER in solution phase; Langmuir 1:1 model. To be noted: both partners purified.

For the molecule B1, the binding result in series [1] is given as “binds”.

As for B2, in series [2], the Kd (usually the constant that tells how readily two partners part at equilibrium) is 68.4 nM; the koff (commonly the first-order rate constant of dissociation) was 0.000203 s⁻¹; the kon – broadly, a measure of how fast the partners come together – was 2970 M⁻¹ s⁻¹. Moreover, in series [3], the Kd was 0.55 nM, the koff was 0.000228 s⁻¹ and the kon was 415000 M⁻¹ s⁻¹.

Turning to B3, in series [4], the Kd was 0.2 nM, the koff is 8.22e-05 s⁻¹ and the kon is 404000 M⁻¹ s⁻¹.
